Drawing on patent publication US20260209365A1, “ANTI-COMMON GAMMA CHAIN PROTEINS AND COMPOSITIONS OF MATTER” (SINOMAB BIOSCIENCE LIMITED, priority 2023, published 2026), this text covers binding result and EC50 for 2 molecules.

The target of assay [1] is T1, Rhesus (Macaca mulatta, UniProt A0A5F8A3G1).
T1 construct: full length, on the cell surface; the purified extracellular domain is 1.m23; also called rhesus γc protein, full length, on HEK-293 cells
T1 sequence (receptor chain): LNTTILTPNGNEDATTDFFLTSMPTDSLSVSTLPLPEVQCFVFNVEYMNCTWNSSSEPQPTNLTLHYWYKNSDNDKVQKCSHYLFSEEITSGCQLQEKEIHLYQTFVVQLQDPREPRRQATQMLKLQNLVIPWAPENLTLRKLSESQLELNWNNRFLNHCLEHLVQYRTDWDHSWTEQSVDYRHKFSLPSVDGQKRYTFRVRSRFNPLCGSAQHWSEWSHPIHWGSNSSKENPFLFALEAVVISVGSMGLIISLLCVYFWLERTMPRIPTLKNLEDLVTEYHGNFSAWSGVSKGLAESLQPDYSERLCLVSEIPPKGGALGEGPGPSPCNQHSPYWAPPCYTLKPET
The assay is described as follows: flow cytometry, FITC-hSM-05A on HEK-293 cells transfected with full-length rhesus γc, N=3. On the procedure:
In brief, hSM-05A was fluorescently labelled with FITC. HEK-293 cells were transfected with the plasmids expressing the full-length γc proteins from different species for 2 days before the incubation with the fluorescent antibodies for flow cytometry analyses. […] All antibodies were administrated at 33 nM (5 μg/ml). C=non-transfected control; Hu: Humans; Rh: Rhesus monkey; Cy: Cynomolgus; Ma: Common marmoset. N=3 for all groups.
The binding specificities of humanized anti-γc antibodies to native γc proteins were further evaluated by […] binding assay. In brief, human HEK-293 cells were transfected with plasmid expressing full length γc protein from human, rhesus, cynomolgus or common marmoset. Two days later, transfected cells or non-transfected controls were incubated with FITC-conjugated hSM-05A on ice for an hour before analysis by flow cytometry.
For orientation: In flow cytometry, cells or beads pass a laser one at a time.

Assay [2] has as its target T2, human γc protein (extracellular domain), purified (human (Homo sapiens), UniProt P31785 23-262).
T2 construct: Either purchased from Sino Biological or in-house generated; also called human common gamma chain; CD132; not shown: which was used i
T2 sequence: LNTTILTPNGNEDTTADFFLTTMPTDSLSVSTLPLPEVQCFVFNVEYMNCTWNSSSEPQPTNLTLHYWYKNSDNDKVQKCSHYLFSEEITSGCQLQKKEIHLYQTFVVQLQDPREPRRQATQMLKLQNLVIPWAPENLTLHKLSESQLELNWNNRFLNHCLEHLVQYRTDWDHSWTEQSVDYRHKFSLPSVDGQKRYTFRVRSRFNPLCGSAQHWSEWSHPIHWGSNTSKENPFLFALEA
In words: ELISA, strip coated with 1 µg/ml human γc, antibody in 5-fold dilutions from 10 to 0.00064 µg/ml, OD 450 nm. On the procedure:
(§1) The ELISA strip was coated with 1 μg/ml γc protein from each species. Antibody was diluted 5-fold each from 10 μg/ml to 0.00064 μg/ml.
(In general: ELISA stands for enzyme-linked immunosorbent assay.)

Assay [3] concerns the target T3, rabbit γc protein (extracellular domain), purified (rabbit (Oryctolagus cuniculus)).
T3 construct: also called rabbit (Oryctolagus cuniculus) γc
T3 chain: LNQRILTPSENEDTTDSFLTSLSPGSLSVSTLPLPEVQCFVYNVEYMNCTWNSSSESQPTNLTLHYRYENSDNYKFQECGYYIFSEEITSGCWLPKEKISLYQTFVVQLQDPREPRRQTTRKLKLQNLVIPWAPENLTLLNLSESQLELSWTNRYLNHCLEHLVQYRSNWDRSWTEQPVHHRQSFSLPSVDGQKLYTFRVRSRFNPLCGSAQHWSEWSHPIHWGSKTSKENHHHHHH
The assay is described as follows: ELISA, strip coated with 1 µg/ml rabbit γc, antibody in 5-fold dilutions from 10 to 0.00064 µg/ml, OD 450 nm. How it is done: as §1
(§2) Humanized antibodies with back-mutation (hSM-05A and hSM-05E) were tested in the following assays. Binding affinities were investigated in the ELISA assays.

The target of assay [4] is T4, rhesus γc protein (extracellular domain), purified (rhesus (Macaca mulatta), UniProt P31785 23-254 (human entry)).
T4 construct: also called rhesus (Macaca mulatta) γc
T4 chain: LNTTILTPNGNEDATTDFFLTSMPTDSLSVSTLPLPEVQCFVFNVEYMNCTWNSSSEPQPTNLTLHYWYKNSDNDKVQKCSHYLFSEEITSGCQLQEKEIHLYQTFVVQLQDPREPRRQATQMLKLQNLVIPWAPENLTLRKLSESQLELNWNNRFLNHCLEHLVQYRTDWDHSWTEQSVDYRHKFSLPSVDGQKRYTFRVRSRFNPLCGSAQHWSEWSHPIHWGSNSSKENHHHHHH
The assay is described as follows: ELISA, strip coated with 1 µg/ml rhesus γc, antibody in 5-fold dilutions from 10 to 0.00064 µg/ml, OD 450 nm. On the procedure:
as §1

Assay [5] has as its target T5, chimpanzee γc protein (extracellular domain), purified (chimpanzee (Pan troglodytes), UniProt P31785 23-262).
T5 construct: also called chimpanzee (Pan troglodytes) γc
T5 sequence: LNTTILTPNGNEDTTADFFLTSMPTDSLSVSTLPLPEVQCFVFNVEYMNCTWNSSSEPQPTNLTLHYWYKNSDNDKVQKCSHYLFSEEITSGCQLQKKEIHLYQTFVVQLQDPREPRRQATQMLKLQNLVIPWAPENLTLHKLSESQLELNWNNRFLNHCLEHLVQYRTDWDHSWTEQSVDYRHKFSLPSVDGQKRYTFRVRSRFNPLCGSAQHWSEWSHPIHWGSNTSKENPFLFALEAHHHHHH
In words: ELISA, strip coated with 1 µg/ml chimpanzee γc, antibody in 5-fold dilutions from 10 to 0.00064 µg/ml, OD 450 nm. On the procedure:
as §1

For assay [6], the target named is T6, common marmoset γc protein (extracellular domain), purified (common marmoset (Callithrix jacchus), UniProt P31785 26-262 (human entry)).
T6 construct: also called common marmoset (Callithrix jacchus) γc
T6 chain: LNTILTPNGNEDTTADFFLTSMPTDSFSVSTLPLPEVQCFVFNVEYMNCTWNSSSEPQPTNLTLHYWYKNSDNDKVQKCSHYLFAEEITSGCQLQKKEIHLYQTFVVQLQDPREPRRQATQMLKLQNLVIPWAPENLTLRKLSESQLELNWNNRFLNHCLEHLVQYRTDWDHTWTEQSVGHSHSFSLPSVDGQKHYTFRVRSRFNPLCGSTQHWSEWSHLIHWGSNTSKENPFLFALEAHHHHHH
In words: ELISA, strip coated with 1 µg/ml common marmoset γc, antibody in 5-fold dilutions from 10 to 0.00064 µg/ml, OD 450 nm. On the procedure: as §1, §2

The target in assay [7] is T7, cynomolgus γc protein (extracellular domain), purified (cynomolgus (Macaca fascicularis), UniProt P31785 23-254 (human entry)).
T7 construct: Purchased from Sino Biological or in-house; also called cynomolgus (Macaca fascicularis) γc
T7 chain: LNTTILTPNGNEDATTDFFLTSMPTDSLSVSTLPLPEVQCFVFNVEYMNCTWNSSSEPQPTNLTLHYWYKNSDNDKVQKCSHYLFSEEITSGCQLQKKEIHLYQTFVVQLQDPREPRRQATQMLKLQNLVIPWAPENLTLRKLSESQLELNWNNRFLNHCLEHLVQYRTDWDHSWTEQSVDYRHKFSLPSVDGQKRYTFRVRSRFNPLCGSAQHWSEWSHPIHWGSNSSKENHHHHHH
In words: ELISA, strip coated with 1 µg/ml cynomolgus γc, antibody in 5-fold dilutions from 10 to 0.00064 µg/ml, OD 450 nm; curve near baseline up to about 0.08 µg/ml, rises to about 1.35 at 10 µg/ml, no upper plateau. How it is done:
as §1

Assay [8] addresses T2, human γc protein (extracellular …). The assay is described as follows: ELISA, strip coated with 1 µg/ml human γc, antibody in 5-fold dilutions from 10 to 0.00064 µg/ml, OD 450 nm. How it is done: as §1, §2
The source holds these as a separate data set.

The target in assay [9] is T3, rabbit γc protein (extracellular …). In words: ELISA, strip coated with 1 µg/ml rabbit γc, antibody in 5-fold dilutions from 10 to 0.00064 µg/ml, OD 450 nm. On the procedure: as §1
For assay [10], the target named is T7, cynomolgus γc protein (extracellular …). In words: ELISA, strip coated with 1 µg/ml cynomolgus γc, antibody in 5-fold dilutions from 10 to 0.00064 µg/ml, OD 450 nm; curve rises to about 1.6 at 10 µg/ml, no upper plateau. On the procedure:
as §1, §2

Assay [11] deals with T4, rhesus γc protein (extracellular …). The assay is described as follows: ELISA, strip coated with 1 µg/ml rhesus γc, antibody in 5-fold dilutions from 10 to 0.00064 µg/ml, OD 450 nm; curve near baseline up to about 0.4 µg/ml, rises to about 0.8 at 10 µg/ml, no upper plateau. On the procedure:
as §1, §2

Like-named read-outs stand apart in the source and are kept apart here.

B1: hSM-05A, humanized anti-γc antibody with back-mutation (antibody, V domains shown)
VH: QVQLVQSGAEVLKPGASVKVSCKASGYTFTEYTMHWVKQARGQRLEWIGGIDPYNGGATYNQRFKGKATLTTDTSTSTAYMELRNLRSDDTAVYYCARRRLYYGNALDYWGQGTLVTVSS
VL: DIVMTQSPLSLPVTPGEQASISCRSSQSLVHSNGNTYLHWYLQKPGQSPQLLIYKVSSRFSGVPDRFSGSGSGTDFTLKISRVEAEDVGVYFCSQTTHVPFTFGSGTKLEIKR
notes: Full-length humanized antibody; also called humanized (h) SM-05A; hbSM-05A
The EC50 is the midpoint of the concentration-response curve. A higher EC50 goes with lower potency in that assay. Regarding B1, the binding result in assay [1] is “no binding (tested: 5 µg/ml (33 nM))”; in assay [3] it was “no binding (tested: 10 µg/ml)”; in assay [4], “no binding (tested: 10 µg/ml)”. Besides, the EC50 is 0.02 µg/mL in [2], 0.06 µg/mL in [5], 0.04 µg/mL in [6] and 9.56 µg/mL in assay [7].

B2: hSM-05E, humanized anti-γc antibody with back-mutation (antibody, V domains shown)
VH: QVQLVQSGAEVLKPGASVKVSCKASGYTFTEYTMHWVKQARGQRLEWIGGIDPNTGGVTYNQKFKGKATLTTDTSTSTAYMELRNLRSDDTAVYYCARRRRYYGYALDYWGQGTLVTVSS
VL: DIVMTQSPLSLPVTPGEQASISCRSSQSIVHSNGNTYLEWYLQKPGQSPQLLIYKVSNRFSGVPDRFSGSGSGTDFTLKISRVEAEDVGVYFCSQSTHVPFMFGSGTKLEIKR
notes: Full-length humanized antibody; also called humanized SM-05E; hbSM-05E
In the case of B2, the EC50 was 0.02 µg/mL in assay [8]; 0.17 µg/mL in assay [5]; 0.17 µg/mL in assay [6]; 5.78 µg/mL in assay [10]; 6.3 µg/mL in assay [11]. Moreover, the binding result in assay [9] was “no binding (tested: 10 µg/ml)”.
